Measurements from the supplement of paper PMC9112550, “Optimization of the antimicrobial peptide Bac7 by deep mutational scanning” (BMC Biology, 2022).

System: Escherichia coli TOP10
Test: shrunken log2 fold change of peptide-encoding DNA abundance (4.5 h post-induction vs induction); higher = less antimicrobial activity (less host growth inhibition)
Conditions: time post-induction: 4.5 h; library: site-saturation at positions 5, 18, 19, 20
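Further: peptides expressed intracellularly from a pBAD plasmid library in pooled LB shake-flask culture, induced with 0.3% L-arabinose, DNA abundance read by NGS, three biological replicates, DESeq2 with apeglm shrinkage.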

| Sequence | shrunken log2 fold change |
| --- | --- |
| RRIRARPPRLPRPRPRPNINPRP | -0.349 |
| RRIRGRPPRLPRPRPRPRMVPRP | 0.643 |
| RRIRARPPRLPRPRPRPESRPRP | 0.147 |
| RRIRERPPRLPRPRPRPVTAPRP | -0.00991 |
| RRIRYRPPRLPRPRPRPIIEPRP | -0.643 |
| RRIRQRPPRLPRPRPRPECEPRP | 0.028 |
| RRIRVRPPRLPRPRPRPEGEPRP | 0.171 |
| RRIRRRPPRLPRPRPRPENMPRP | 0.0592 |
| RRIRARPPRLPRPRPRPWYMPRP | -0.958 |
| RRIRGRPPRLPRPRPRPRNGPRP | 0.343 |
| RRIRCRPPRLPRPRPRPVKDPRP | -0.305 |
| RRIRQRPPRLPRPRPRPWRGPRP | -0.0544 |
| RRIRTRPPRLPRPRPRPPMSPRP | -0.0702 |
| RRIRIRPPRLPRPRPRPMFFPRP | -0.534 |
| RRIRFRPPRLPRPRPRPMLLPRP | -0.128 |
| RRIRRRPPRLPRPRPRPWMDPRP | -0.196 |
| RRIRERPPRLPRPRPRPNIWPRP | -0.0737 |
| RRIRSRPPRLPRPRPRPAHHPRP | 0.048 |
| RRIRDRPPRLPRPRPRPMHMPRP | -0.0583 |
| RRIRKRPPRLPRPRPRPVERPRP | 0.204 |
| RRIRNRPPRLPRPRPRPLVYPRP | -0.943 |
| RRIRSRPPRLPRPRPRPKPEPRP | -0.01 |
| RRIRTRPPRLPRPRPRPARYPRP | 0.189 |
| RRIRIRPPRLPRPRPRPLACPRP | -0.398 |
| RRIRWRPPRLPRPRPRPGASPRP | 0.793 |

| Sequence | shrunken log2 fold change |
| --- | --- |
| RRIRWRPPRLPRPRPRPCWVPRP | -0.116 |
| RRIRYRPPRLPRPRPRPGHMPRP | -0.195 |
| RRIRDRPPRLPRPRPRPWHEPRP | -0.266 |
| RRIRHRPPRLPRPRPRPDDHPRP | 0.0155 |
| RRIRWRPPRLPRPRPRPCMHPRP | -0.0533 |
| RRIRGRPPRLPRPRPRPKKSPRP | 0.834 |
| RRIRCRPPRLPRPRPRPAKYPRP | -0.299 |
| RRIRIRPPRLPRPRPRPQWYPRP | -0.485 |
| RRIRCRPPRLPRPRPRPELDPRP | 0.00162 |
| RRIRDRPPRLPRPRPRPWYYPRP | 0.0606 |
| RRIRSRPPRLPRPRPRPLESPRP | 0.14 |
| RRIRDRPPRLPRPRPRPEQEPRP | -0.0197 |
| RRIRMRPPRLPRPRPRPWIDPRP | -0.146 |
| RRIRKRPPRLPRPRPRPISGPRP | -7.33e-05 |
| RRIRVRPPRLPRPRPRPNPEPRP | -0.286 |
| RRIRPRPPRLPRPRPRPYHAPRP | -0.19 |
| RRIRQRPPRLPRPRPRPNRSPRP | -0.0178 |
| RRIRHRPPRLPRPRPRPTFSPRP | -0.22 |
| RRIRERPPRLPRPRPRPGDDPRP | -0.152 |
| RRIRKRPPRLPRPRPRPFSFPRP | 0.0267 |
| RRIRPRPPRLPRPRPRPPICPRP | -0.474 |
| RRIRARPPRLPRPRPRPMDQPRP | -0.194 |
| RRIRWRPPRLPRPRPRPADIPRP | 0.0169 |
| RRIRKRPPRLPRPRPRPNDDPRP | 0.414 |
| RRIRYRPPRLPRPRPRPVKKPRP | -0.0286 |

| Sequence | shrunken log2 fold change |
| --- | --- |
| RRIRPRPPRLPRPRPRPHQPPRP | -0.129 |
| RRIRVRPPRLPRPRPRPYIIPRP | -0.519 |
| RRIRTRPPRLPRPRPRPFWYPRP | -0.374 |
| RRIRPRPPRLPRPRPRPPGCPRP | 0.264 |
| RRIRLRPPRLPRPRPRPGSDPRP | -0.149 |
| RRIRNRPPRLPRPRPRPGKTPRP | 0.0837 |
| RRIRHRPPRLPRPRPRPFRLPRP | -0.322 |
| RRIRFRPPRLPRPRPRPWFRPRP | -0.151 |
| RRIRWRPPRLPRPRPRPAFAPRP | 1.23 |
| RRIRTRPPRLPRPRPRPSEDPRP | -0.494 |
| RRIRERPPRLPRPRPRPDADPRP | 0.0155 |
| RRIRPRPPRLPRPRPRPRLFPRP | 1.92 |
| RRIRMRPPRLPRPRPRPMYIPRP | -0.0178 |
| RRIRGRPPRLPRPRPRPQYWPRP | 0.122 |
| RRIRRRPPRLPRPRPRPWVFPRP | -0.106 |
| RRIRHRPPRLPRPRPRPWFIPRP | -0.775 |
| RRIRMRPPRLPRPRPRPMCHPRP | 0.0525 |
| RRIRMRPPRLPRPRPRPQSKPRP | 0.0671 |
| RRIRWRPPRLPRPRPRPWICPRP | -0.137 |
| RRIRYRPPRLPRPRPRPTDVPRP | -0.122 |
| RRIRDRPPRLPRPRPRPDRFPRP | 0.0112 |
| RRIRDRPPRLPRPRPRPCHHPRP | -0.0426 |
| RRIRGRPPRLPRPRPRPSYAPRP | 0.316 |
| RRIRMRPPRLPRPRPRPCREPRP | -0.126 |
| RRIRHRPPRLPRPRPRPFYTPRP | -1.02 |

| Sequence | shrunken log2 fold change |
| --- | --- |
| RRIRERPPRLPRPRPRPRHDPRP | -0.328 |
| RRIRLRPPRLPRPRPRPMGYPRP | -0.126 |
| RRIRARPPRLPRPRPRPAPCPRP | 0.638 |
| RRIRLRPPRLPRPRPRPDYKPRP | -0.354 |
| RRIRIRPPRLPRPRPRPGPHPRP | 0.0135 |
| RRIRGRPPRLPRPRPRPTRTPRP | 1.32 |
| RRIRYRPPRLPRPRPRPTVFPRP | -0.317 |
| RRIRQRPPRLPRPRPRPAHQPRP | 0.0203 |
| RRIRPRPPRLPRPRPRPIFPPRP | 0.0704 |
| RRIRQRPPRLPRPRPRPKHMPRP | -0.237 |
| RRIRWRPPRLPRPRPRPTVLPRP | 0.188 |
| RRIRVRPPRLPRPRPRPVRQPRP | -0.0557 |
| RRIRWRPPRLPRPRPRPDPPPRP | 0.575 |
| RRIRIRPPRLPRPRPRPDANPRP | 0.219 |
| RRIRLRPPRLPRPRPRPDSEPRP | 0.482 |
| RRIRGRPPRLPRPRPRPQPEPRP | 0.704 |
| RRIRNRPPRLPRPRPRPFFSPRP | -0.14 |
| RRIRWRPPRLPRPRPRPECEPRP | 0.912 |
| RRIRQRPPRLPRPRPRPNYWPRP | -0.251 |
| RRIRMRPPRLPRPRPRPETHPRP | 2.51 |
| RRIRERPPRLPRPRPRPLVLPRP | -0.333 |
| RRIRNRPPRLPRPRPRPSSYPRP | -0.388 |
| RRIRDRPPRLPRPRPRPTPFPRP | -0.13 |
| RRIRKRPPRLPRPRPRPADEPRP | 0.19 |
| RRIRNRPPRLPRPRPRPMLSPRP | 0.081 |

| Sequence | shrunken log2 fold change |
| --- | --- |
| RRIRSRPPRLPRPRPRPQYEPRP | -0.355 |
| RRIRMRPPRLPRPRPRPKDGPRP | -0.0156 |
| RRIRKRPPRLPRPRPRPLEQPRP | 0.0352 |
| RRIRQRPPRLPRPRPRPEHTPRP | -0.0628 |
| RRIRGRPPRLPRPRPRPKGNPRP | 0.598 |
| RRIRMRPPRLPRPRPRPEFYPRP | -0.056 |
| RRIRGRPPRLPRPRPRPKIYPRP | 0.000217 |
| RRIRGRPPRLPRPRPRPQQEPRP | 0.0132 |
| RRIRTRPPRLPRPRPRPWWTPRP | -0.045 |
| RRIRSRPPRLPRPRPRPITMPRP | -0.639 |
| RRIRLRPPRLPRPRPRPCKQPRP | 0.0377 |
| RRIRMRPPRLPRPRPRPAFHPRP | 0.319 |
| RRIRHRPPRLPRPRPRPAPCPRP | 0.288 |
| RRIRKRPPRLPRPRPRPYGQPRP | -0.306 |
| RRIRTRPPRLPRPRPRPQDFPRP | -0.29 |
| RRIRGRPPRLPRPRPRPSCFPRP | 0.504 |
| RRIRWRPPRLPRPRPRPTNMPRP | -0.154 |
| RRIRCRPPRLPRPRPRPHQMPRP | -0.691 |
| RRIRMRPPRLPRPRPRPGQNPRP | 0.0316 |
| RRIRYRPPRLPRPRPRPYWQPRP | -0.000687 |
| RRIRSRPPRLPRPRPRPEIHPRP | 0.0186 |
| RRIRGRPPRLPRPRPRPSYRPRP | -0.144 |
| RRIRPRPPRLPRPRPRPTHTPRP | 0.13 |
| RRIRIRPPRLPRPRPRPYKAPRP | -0.361 |
| RRIRFRPPRLPRPRPRPYNDPRP | -0.641 |

| Sequence | shrunken log2 fold change |
| --- | --- |
| RRIRHRPPRLPRPRPRPTAEPRP | 0.056 |
| RRIRLRPPRLPRPRPRPWELPRP | -0.00192 |
| RRIRVRPPRLPRPRPRPLYNPRP | -0.56 |
| RRIRKRPPRLPRPRPRPFEYPRP | -0.00133 |
| RRIRYRPPRLPRPRPRPRPIPRP | -0.0521 |
| RRIRERPPRLPRPRPRPVKWPRP | -0.129 |
| RRIRCRPPRLPRPRPRPEFTPRP | -0.194 |
| RRIRCRPPRLPRPRPRPVPPPRP | 0.474 |
| RRIRGRPPRLPRPRPRPDMLPRP | 0.526 |
| RRIRARPPRLPRPRPRPGYRPRP | -0.107 |
| RRIRGRPPRLPRPRPRPELFPRP | 1.63 |
| RRIRIRPPRLPRPRPRPYFMPRP | -1.21 |
| RRIRDRPPRLPRPRPRPFLGPRP | -0.0161 |
| RRIRRRPPRLPRPRPRPLSQPRP | 0.000673 |
| RRIRQRPPRLPRPRPRPPVIPRP | -0.498 |
| RRIRERPPRLPRPRPRPFYNPRP | -0.306 |
| RRIRRRPPRLPRPRPRPPCVPRP | 1.02 |
| RRIRNRPPRLPRPRPRPWVAPRP | -0.0268 |
| RRIRWRPPRLPRPRPRPLYPPRP | -0.208 |
| RRIRQRPPRLPRPRPRPSCCPRP | -0.408 |
| RRIRARPPRLPRPRPRPWWKPRP | -0.00149 |
| RRIRDRPPRLPRPRPRPQAQPRP | -0.0247 |
| RRIRCRPPRLPRPRPRPTCYPRP | -0.154 |
| RRIRPRPPRLPRPRPRPVQMPRP | 0.0287 |
| RRIRSRPPRLPRPRPRPQYHPRP | -0.9 |
